Experimental data taken from patent US20040048327.

Tests used:
[1] = target: T1, Ac-AHph-trans-EP-COOEt
T1 chain: X

[2] = target: T2, Ac-Leu-AHph-trans-EP-COOEt
T2 chain: LX

[3] = target: T3, Ac-Leu-ALeu-trans-EP-COOEt
T3 chain: LL

[4] = target: T4, Boc-Abu-AHph-trans-EP-CH2CH2Ph
T4 chain: XX

[5] = target: T5, Boc-Nle-AHph-trans-EP-CH2CH2Ph
T5 chain: XX

[6] = target: T6, Boc-Nle-AHph-trans-EP-COOEt
T6 chain: XX

[7] = target: T7, Boc-Np2-ALeu-trans-EP-COOEt
T7 chain: XL

[8] = target: T8, Boc-Nva-AHph-trans-EP-COOEt
T8 chain: XX

[9] = target: T9, Cbz-AHph-trans-EP-COOEt
T9 chain: X

[10] = target: T10, Cbz-ALeu-trans-EP-COOEt
T10 chain: L

[11] = target: T11, Cbz-APhe-trans-EP-CH2CH2Ph
T11 chain: F

[12] = target: T12, Cbz-APhe-trans-EP-COOEt
T12 chain: F

[13] = target: T13, Cbz-Ala-Ala-AAsn-(2R, 3R)-EP-COOEt
T13 chain: AAN

[14] = target: T14, Cbz-Ala-Ala-AAsn-(2S, 3S)-EP-COOEt
T14 chain: AAN

[15] = target: T15, Cbz-Ala-Ala-AAsn-cis-EP-COOEt
T15 chain: AAN

[16] = target: T16, Cbz-Ala-Ala-AAsn-trans-EP-COOEt
T16 chain: AAN

[17] = target: T17, Cbz-Ala-Ala-NHN(CH2COOEt)-trans-EP-COOEt
T17 chain: AAD

[18] = target: T18, Cbz-Asp-Glu-Val-AAsp-(2R, 3R)-EP-COOEt (not fully specified)
T18 chain: DEVD

[19] = target: T19, Cbz-Asp-Glu-Val-AAsp-(2S, 3S)-EP-COOEt (not fully specified)
T19 chain: DEVD

[20] = target: T20, Cbz-Leu-AAbu-trans-EP-COOEt
T20 chain: LX

[21] = target: T21, Cbz-Leu-AAbu-trans-EP-COOH
T21 chain: LX

[22] = target: T22, Cbz-Leu-AHph-(2R, 3R)-EP-COOEt
T22 chain: LX

[23] = target: T23, Cbz-Leu-AHph-(2S, 3S)-EP-COOEt
T23 chain: LX

[24] = target: T24, Cbz-Leu-AHph-cis-EP-COOEt
T24 chain: LX

[25] = target: T25, Cbz-Leu-ALeu-(2R, 3R)-EP-COOEt
T25 chain: LL

[26] = target: T26, Cbz-Leu-ALeu-(2S, 3S)-EP-COOEt
T26 chain: LL

[27] = target: T27, Cbz-Leu-ALeu-cis-EP-COOEt
T27 chain: LL

[28] = target: T28, Cbz-Leu-ALeu-trans-EP-COOEt
T28 chain: LL

[29] = target: T29, Cbz-Leu-Glu-Thr-AAsp-(2R, 3R)-EP-COOEt
T29 chain: LETD

[30] = target: T30, Cbz-Leu-Glu-Thr-AAsp-(2S, 3S)-EP-COOEt
T30 chain: LETD

[31] = target: T31, Cbz-Leu-Leu-ALeu-(2R, 3R)-EP-COOEt
T31 chain: LLL

[32] = target: T32, Cbz-Leu-Leu-ALeu-(2S, 3S)-EP-COOEt
T32 chain: LLL

[33] = target: T33, Cbz-Leu-Leu-ALeu-(2S, 3S)-EP-COOH
T33 chain: LLL

[34] = target: T34, Cbz-Leu-Leu-ALeu-trans-EP-COOEt
T34 chain: LLL

[35] = target: T35, Cbz-Leu-Phe-AGln-trans-EP-COOEt
T35 chain: LFQ

[36] = target: T36, Cbz-Phe-ALeu-trans-EP-CH2CH2Ph
T36 chain: FL

[37] = target: T37, Cbz-Phe-ALeu-trans-EP-COOEt
T37 chain: FL

[38] = target: T38, Cbz-Phe-APhe-trans-EP-CH2CH2Ph
T38 chain: FF

[39] = target: T39, PhPr-Val-Ala-AAsp-trans-EP-CH2CH2Ph
T39 chain: VAD

[40] = target: T40, PhPr-Val-Ala-AAsp-trans-EP-COOCH2Ph
T40 chain: VAD

[41] = target: T41, Suc-Np2-ALeu-trans-EP-COOEt
T41 chain: XL

B1: papain (protein)
chain: IPEYVDWRQKGAVTPVKNQGSCGSCWAFSAVVTIEGIIKIRTGNLNEYSEQELLDCDRRSYGCNGGYPWSALQLVAQYGIHYRNTYPYEGVQRYCRSREKGPYAAKTDGVRQVQPYNEGALLYSIANQPVSVVLEAAGKDFQLYRGGIFVGPCGNKVDHAVAAVGYGPNYILIKNSWGTGWGENGYIRIKRGTGNSYGVCGLYTSSFYPVKN
[1]
  kobs/[I]: 26.9 M⁻¹ s⁻¹
[2]
  kobs/[I]: 1.9 M⁻¹ s⁻¹
[3]
  kobs/[I]: 2.09 M⁻¹ s⁻¹
[4]
  kobs/[I]: 0.2 M⁻¹ s⁻¹
[5]
  kobs/[I]: 0.5 M⁻¹ s⁻¹
[6]
  kobs/[I]: 1.6 M⁻¹ s⁻¹
[7]
  kobs/[I]: 3.9 M⁻¹ s⁻¹
[8]
  kobs/[I]: 1.4 M⁻¹ s⁻¹
[9]
  kobs/[I]: 18.8 M⁻¹ s⁻¹
[10]
  kobs/[I]: 16.1 M⁻¹ s⁻¹
[11]
  kobs/[I]: 0.92 M⁻¹ s⁻¹
[12]
  kobs/[I]: 8.5 M⁻¹ s⁻¹
[13]
  kobs/[I]: 3 M⁻¹ s⁻¹
[14]
  kobs/[I]: 4 M⁻¹ s⁻¹
[15]
  kobs/[I]: NI
[16]
  kobs/[I]: 0.9 M⁻¹ s⁻¹
[17]
  kobs/[I]: 8.17 M⁻¹ s⁻¹
[18]
  kobs/[I]: NI
[19]
  kobs/[I]: NI
[20]
  kobs/[I]: 4.94 M⁻¹ s⁻¹
[21]
  kobs/[I]: 1.47 M⁻¹ s⁻¹
[22]
  kobs/[I]: 2.16 M⁻¹ s⁻¹
[23]
  kobs/[I]: 5.68 M⁻¹ s⁻¹
[24]
  kobs/[I]: 1.03 M⁻¹ s⁻¹
[25]
  kobs/[I]: 6.7 M⁻¹ s⁻¹
[26]
  kobs/[I]: 10.5 M⁻¹ s⁻¹
[27]
  kobs/[I]: 0.38 M⁻¹ s⁻¹
[28]
  kobs/[I]: 6.37 M⁻¹ s⁻¹
[29]
  kobs/[I]: 0.24 M⁻¹ s⁻¹
[30]
  kobs/[I]: 0.47 M⁻¹ s⁻¹
[31]
  kobs/[I]: 20.6 M⁻¹ s⁻¹
[32]
  kobs/[I]: 10.5 M⁻¹ s⁻¹
[33]
  kobs/[I]: 6.93 M⁻¹ s⁻¹
[34]
  kobs/[I]: 34.8 M⁻¹ s⁻¹
[35]
  kobs/[I]: 0.9 M⁻¹ s⁻¹
[36]
  kobs/[I]: 0.7 M⁻¹ s⁻¹
[37]
  kobs/[I]: 0.91 M⁻¹ s⁻¹
[38]
  kobs/[I]: 0.5 M⁻¹ s⁻¹
[39]
  kobs/[I]: NI
[40]
  kobs/[I]: < 10 M⁻¹ s⁻¹
[41]
  kobs/[I]: 1.39 M⁻¹ s⁻¹
